Columns and labels:
[1] = target: the molecule itself; assay: AUC; sedimentation velocity at increased protein concentration (RIP2K at 10 and 18 μM; range tested 4 to 18 μM); 42,000 r.p.m., 4°C; 20 mM Tris pH 7.5, 50 mM NaCl, 5% glycerol, 250 μM TCEP; oligomers beyond the dimer
[2] = target: the molecule itself; assay: AUC; sedimentation velocity at low protein concentration (3-5 μM); 42,000 r.p.m., 4°C; 20 mM Tris pH 7.5, 50 mM NaCl, 5% glycerol, 250 μM TCEP; monomer to dimer
[3] = target: the molecule itself; assay: native MS; 3-5 μM protein in 250 mM ammonium acetate with 1 mM DTT, nano-ESI Q-TOF; RIP2K_(D146N) as the staurosporine sample
[4] = target: the molecule itself; assay: crystal structure; RIP2K_(L294F) 5 mg/ml with 2 mM AMPPCP and 5 mM MgCl2; sitting drop, 20°C; P4(1)2(1)2, a dimer in the asymmetric unit; 2.0 Å

B1: RIP2K_(K47R) (RIP2 kinase domain 1-300, kinase-dead mutant K47R, not phosphorylated) (domain or fragment, UniProt O43353 1-300, looked up)
chain: MNGEAICSALPTIPYHKLADLRYLSRGASGTVSSARHADWRVQVAVRHLHIHTPLLDSERKDVLREAEILHKARFSYILPILGICNEPEFLGIVTEYMPNGSLNELLHRKTEYPDVAWPLRFRILHEIALGVNYLHNMTPPLLHHDLKTQNILLDNEFHVKIADFGLSKWRMMSLSQSRSSKSAPEGGTIIYMPPENYEPGQKSRASIKHDIYSYAVITWEVLSRKQPFEDVTNPLQIMYSVSQGHRPVINEESLPYDIPHRARMISLIESGWAQNPDERPSFLKCLIELEPVLRTFEEI
notes: Not phosphorylated by mass spectrometry; also called Rip2_(K47R)
stoichiometry N [1]: 4
stoichiometry N [2]: 2

B2: RIP2K (kinase domain of Receptor Interacting protein kinase 2, residues 1-300), wild type, phosphorylated (domain or fragment, UniProt O43353 1-300, looked up)
chain: MNGEAICSALPTIPYHKLADLRYLSRGASGTVSSARHADWRVQVAVKHLHIHTPLLDSERKDVLREAEILHKARFSYILPILGICNEPEFLGIVTEYMPNGSLNELLHRKTEYPDVAWPLRFRILHEIALGVNYLHNMTPPLLHHDLKTQNILLDNEFHVKIADFGLSKWRMMSLSQSRSSKSAPEGGTIIYMPPENYEPGQKSRASIKHDIYSYAVITWEVLSRKQPFEDVTNPLQIMYSVSQGHRPVINEESLPYDIPHRARMISLIESGWAQNPDERPSFLKCLIELEPVLRTFEEI
modifications: auto-phosphorylated in vitro: phosphoserine at 174, 176, 178 and at 180 or 181 (a maximum of five phosphorylation sites)
notes: also called WT RIP2K; RIP2K_(1-300); source: de-phosphorylated with lambda phosphatase and re-phosphorylated before native MS and AUC
stoichiometry N [2]: 2

B3: RIP2K_(D146N) (RIP2 kinase domain 1-300, kinase-dead mutant D146N, not phosphorylated) (domain or fragment, UniProt O43353 1-300, looked up)
chain: MNGEAICSALPTIPYHKLADLRYLSRGASGTVSSARHADWRVQVAVKHLHIHTPLLDSERKDVLREAEILHKARFSYILPILGICNEPEFLGIVTEYMPNGSLNELLHRKTEYPDVAWPLRFRILHEIALGVNYLHNMTPPLLHHNLKTQNILLDNEFHVKIADFGLSKWRMMSLSQSRSSKSAPEGGTIIYMPPENYEPGQKSRASIKHDIYSYAVITWEVLSRKQPFEDVTNPLQIMYSVSQGHRPVINEESLPYDIPHRARMISLIESGWAQNPDERPSFLKCLIELEPVLRTFEEI
notes: Not phosphorylated by mass spectrometry; also called RIP2K_(D146N)-STAU; RIP2KD146N-STAU; source: mixed with 0.5 mM staurosporine during dialysis
stoichiometry N [3]: 2

B4: RIP2K_(L294F) (RIP2 kinase domain 1-300 with the spontaneous mutation L294F), crystallised with AMPPCP (domain or fragment)
chain: GAMAMNGEAICSALPTIPYHKLADLRYLSRGASGTVSSARHADWRVQVAVKHLHIHTPLLDSERKDVLREAEILHKARFSYILPILGICNEPEFLGIVTEYMPNGSLNELLHRKTEYPDVAWPLRFRILHEIALGVNYLHNMTPPLLHHDLKTQNILLDNEFHVKIADFGLSKWRMMSLSQSRSSKSAPEGGTIIYMPPENYEPGQKSRASIKHDIYSYAVITWEVLSRKQPFEDVTNPLQIMYSVSQGHRPVINEESLPYDIPHRARMISLIESGWAQNPDERPSFLKCLIELEPVFRTFEEI
notes: The methods say the AMPPCP crystals came from RIP2K_(L294F); the results call this structure wild-type RIP2K; no density for the phosphorylation sites; also called RIPK_(L294F); RIP2K-AMPPCP; not shown: His-tag, N-terminal, cleaved
binding result [4]: binds

From article PMC5436651 (PLoS ONE, 2017)
